Test results from patent US8852954, “Nucleic acid molecule having binding affinity to rodent-derived IgG antibody, binder, detection reagent, and detection kit” (NEC Solution Innovators, Ltd.).

Key:
Conditions in all cases: chain copies: 2 heavy + 2 light chains (inferred); label: 5'-biotin; stem-loop (predicted)
[1] = target: T1, mouse IgG3 (subtype 3 IgG antibody) (Mus musculus, UniProt P03987-2 P03987-2:1-329); assay: SPR; BIACORE 3000, 1:1 Langmuir
Method: (§1) The analysis of binding was performed using BIACORE 3000 (produced by GE Healthcare) according to its instruction manual. Further, from the signal intensity (RU: Resonance Unit) measured using the BIACORE, the analysis was performed with 1:1 Langmuir binding model using BIAevaluation software, and the dissociation constant between each of the aptamers and each of the mouse IgG antibodies was obtained. The conditions, method, and the like of the measurement using the BIACORE were according to the following documents.
(§2) FIGS. 5 to 7 are graphs showing the change in the signal intensity over time. […] Further, in each of the graphs, the vertical axis indicates the signal intensity (RU) measured using the BIACORE and the horizontal axis indicates the analysis time (sec). In the horizontal axis, "100 seconds" is the time when the injection of a target to be analyzed to a flow cell at the flow rate of 20 μL/min is started. The injection was maintained for 2 minutes (120 seconds), and then a running buffer was sent for 3 minutes (180 seconds) to obtain the sensorgrams showing the interaction between the aptamers and IgG. The global fitting analysis was performed and the sensorgrams were obtained under different target concentration conditions for obtaining correct Kd values.

[2] = target: T2, mouse IgG2a (subtype 2a IgG antibody) (Mus musculus, UniProt P01863 P01863:1-330); assay: SPR; BIACORE 3000, 1:1 Langmuir
Method: as §1, §2

[3] = target: T1, mouse IgG3 (subtype 3 IgG antibody); assay: SPR; second measurement (Example 3)
Method: as §1
(§3) The experiment was performed in the same manner as in Example 2 except that MIG-m034, MIG-m035, MIG-m036, MIG-m037, and MIG-m040 were used as aptamers. FIGS. 8 to 10 are graphs showing the change in the signal intensity over time and respectively show the result obtained using the subtype 1 mouse IgG, the result obtained using the subtype 2a mouse IgG, and the result obtained using the subtype 3 mouse IgG. […] The results summarized in Table 3 tell that these aptamers each have high general versatility as a secondary antibody reagent and are good in the binding force. Further, since it was considered that the base pair in the stem region and U adjacent thereto are not involved in the binding of mouse IgG from Example 1, a clone having a systematic modified base was produced to obtain the Kd value. […]

[4] = target: T2, mouse IgG2a (subtype 2a IgG antibody); assay: SPR; second measurement (Example 3)
Method: as §1, §3

[5] = target: T1, mouse IgG3 (subtype 3 IgG antibody); assay: SPR; BIACORE 3000, 1:1 Langmuir; remark: listed apart in the source
Method: as §1
(§4) The experiment was performed in the same manner as in Example 2 except that MIG-m034, MIG-m035, MIG-m036, MIG-m037, and MIG-m040 were used as aptamers. FIGS. 8 to 10 are graphs showing the change in the signal intensity over time and respectively show the result obtained using the subtype 1 mouse IgG, the result obtained using the subtype 2a mouse IgG, and the result obtained using the subtype 3 mouse IgG. […] The results summarized in Table 3 tell that these aptamers each have high general versatility as a secondary antibody reagent and are good in the binding force. Further, since it was considered that the base pair in the stem region and U adjacent thereto are not involved in the binding of mouse IgG from Example 1, a clone having a systematic modified base was produced to obtain the Kd value. Since all the clones have substantially the same binding force to each of the mouse antibody subtypes, it was considered that the stem region was not involved in the binding with respect to all the subtypes and also that all the aptamers have the same binding mode to each of the subtypes.

[6] = target: T2, mouse IgG2a (subtype 2a IgG antibody); assay: SPR; BIACORE 3000, 1:1 Langmuir; remark: listed apart in the source
Method: as §1, §4

T2 sequence (P01863 whole entry, one chain of several): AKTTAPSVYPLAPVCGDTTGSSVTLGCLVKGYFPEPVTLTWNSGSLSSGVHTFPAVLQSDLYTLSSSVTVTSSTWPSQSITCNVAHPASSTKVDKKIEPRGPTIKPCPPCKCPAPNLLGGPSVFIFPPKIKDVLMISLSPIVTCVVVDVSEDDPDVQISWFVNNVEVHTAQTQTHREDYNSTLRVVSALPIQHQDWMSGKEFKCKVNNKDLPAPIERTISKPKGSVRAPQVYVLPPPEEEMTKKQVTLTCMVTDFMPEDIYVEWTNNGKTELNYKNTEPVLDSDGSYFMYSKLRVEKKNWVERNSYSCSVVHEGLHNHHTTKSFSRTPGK
T1 sequence (P03987 other isoform, or with tags, fused parts or gaps): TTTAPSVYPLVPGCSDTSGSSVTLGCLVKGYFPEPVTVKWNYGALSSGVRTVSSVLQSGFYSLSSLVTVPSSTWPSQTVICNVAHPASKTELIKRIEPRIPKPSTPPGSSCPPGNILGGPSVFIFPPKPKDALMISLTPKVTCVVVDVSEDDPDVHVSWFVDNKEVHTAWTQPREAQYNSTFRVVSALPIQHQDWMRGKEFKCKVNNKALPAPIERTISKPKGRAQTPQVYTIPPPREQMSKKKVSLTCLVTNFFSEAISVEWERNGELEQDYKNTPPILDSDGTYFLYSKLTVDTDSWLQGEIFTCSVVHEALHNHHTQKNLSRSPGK

B1: MIG-m034 (mixed)
mixed: AAAAACGCUGAAGAGAAGACGGAAGGAGACGAAGCGT
modifications: RNA with 5'-dA5 (1-5), LNA at C6 G7 C35 G36, 3'-dT37
In the case of B1, the Kd [1] is reported as 8.8 nM, the Kd [2] is reported as 0.995 nM and the Kd [3] is reported as 8.33 nM. The Kd [4] was 1.09 nM.

B2: MIG-m042 (mixed)
mixed: AAAAACGCUGAAGAGAAGACGGAAGGAGACGAAGCGT
modifications: RNA with 5'-dA5 (1-5), LNA at C6 G7 C35 G36, 2'-OMe U9, 3'-dT37
B2 gave a Kd [1] of 5.57 nM and a Kd [2] of 0.436 nM.

B3: MIG-m036 (mixed)
RNA: AAAAAGCGCUGAAGAGAAGACGGAAGGAGACGAAGCGC
modifications: RNA with 5'-dA5 (1-5), DNA at G6 C7 G37 C38
With B3 the Kd [5] was 13.8 nM and the Kd [6] was 4.61 nM.

B4: MIG-m041 (mixed)
RNA: AAAAAGCGCUGAAGAGAAGACGGAAGGAGACGAAGCGC
modifications: RNA with 5'-dA5 (1-5), DNA at 6-9 and 35-38, 2'-OMe U10
B4 was tested, and the Kd [1] was 8.4 nM and the Kd [2] was 0.959 nM.

B5: MIG-m037 (mixed)
RNA: AAAAAGCGCUGAAGAGAAGACGGAAGGAGACGAAGCGC
modifications: RNA with 5'-dA5 (1-5), DNA at 6-9 and 35-38
In the case of B5, the Kd [5] is reported as 9.85 nM and the Kd [6] is reported as 3.7 nM.

B6: MIG-m040 (mixed)
RNA: AAAAAGCGCUGAAGAGAAGACGGAAGGAGACGAAGCGC
modifications: RNA with 5'-dA5 (1-5), 2'-OMe U10
B6 showed a Kd [5] of 3.46 nM and a Kd [6] of 1.23 nM.

B7: MIG-m035 (mixed)
mixed: AAAAAGCUGAAGAGAAGACGGAAGGAGACGAAGCT
modifications: RNA with 5'-dA5 (1-5), LNA at G6 C7 G33 C34, 3'-dT35
B7 gave a Kd [5] of 139 nM and a Kd [6] of 1.92 nM.
